Assay [1] has as its target T1, human NKG2D-Fc (human, UniProt P26718 78-216).
T1 construct: also called human NKG2D-Fc reagent; not shown: Fc part, not described
T1 sequence (looked up): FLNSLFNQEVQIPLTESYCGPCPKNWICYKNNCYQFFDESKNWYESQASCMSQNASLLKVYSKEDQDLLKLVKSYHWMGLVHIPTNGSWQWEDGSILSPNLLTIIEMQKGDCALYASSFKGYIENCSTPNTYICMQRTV
The assay can be described thus: competition ELISA: inhibition of 2 nM human NKG2D-Fc binding to plate-coated WT sMICA.

Assay [2] has as its target T2, mouse NKG2D-Fc (mouse, UniProt O54709 94-232).
T2 construct: also called murine NKG2D-Fc; murine NKG2D; not shown: Fc part, not described
T2 sequence (looked up): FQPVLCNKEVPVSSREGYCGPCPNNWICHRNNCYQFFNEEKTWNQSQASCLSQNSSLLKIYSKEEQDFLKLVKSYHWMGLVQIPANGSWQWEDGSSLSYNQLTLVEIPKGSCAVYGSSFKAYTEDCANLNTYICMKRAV
Kind of assay: competition ELISA: inhibition of mouse NKG2D-Fc binding to plate-coated MICA.

The target of assay [3] is T3, biotinylated human NKG2D (human, UniProt P26718 78-216).
T3 construct: also called surface coated biotinylated human NKG2D; recombinant biotinylated NKG2D
T3 sequence (looked up): T1 sequence (looked up)
The assay can be described thus: biolayer interferometry (Octet), surface coated biotinylated human NKG2D, 100 nM protein.

Assay [4] addresses T4, NKG2D on NKL cells (human, UniProt P26718 1-216).
T4 sequence (looked up): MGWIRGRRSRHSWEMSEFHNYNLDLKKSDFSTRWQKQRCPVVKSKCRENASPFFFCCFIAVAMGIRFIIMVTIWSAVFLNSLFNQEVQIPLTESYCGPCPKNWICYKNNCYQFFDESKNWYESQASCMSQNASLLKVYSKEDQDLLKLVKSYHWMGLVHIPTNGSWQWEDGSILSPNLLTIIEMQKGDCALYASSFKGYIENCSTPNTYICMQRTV
Kind of assay: cell-based or functional assay.

Assay [5] addresses T3, biotinylated human NKG2D. The assay can be described thus: biolayer interferometry (Octet), surface-coated biotinylated human NKG2D.
The target in assay [6] is T3, biotinylated human NKG2D. The assay can be described thus: biolayer interferometry (Octet), surface-coated biotinylated human NKG2D, titration 1-100 nM.
Assay [7] concerns the target T1, human NKG2D-Fc. The assay can be described thus: competition ELISA: inhibition of human NKG2D-Fc binding to plate-coated WT sMICA.

Residue numbers refer to the chain shown, from its start.

B1: al-a2 variant 16 (ligand)
chain: EPHSLRYNLTVLSWDGSVQSGFLTEVHLDGQPFLRCDRQKCRAKPQGQWAEDVLGNKTWDRETRDLTGWGKDLRMTLAHIKDQKEGLHSLQEIRVCEIHEDNSTRSSQHFYYDGELFLSQNLETLEWTMPQSSRAQTLAMNVRNFLKEDAMETDTHYHAMRADCLQELRRYLKSGVVLRRTVPPMVQVTRSEASGGSGDRVTITCRASQDVSTAVAWYQQKPGKAPKLLIYSASFLYSGVPSRFSGSGSGTDFTLTISSLQPEDFATYYCQQSYTTPPTFGQGTKVEIKGGSSRSSSSGGGGSGGGGEVQLVESGGGLVQPGGSLRLSCAASGFTFTSTGISWVRQAPGKGLEWVGRIYPTNGSTNYADSVKGRFTISADTSKNTAYLQMNSLRAEDTAVYYCARTYGIYDLYVDYTEYVMDYWGQGTLVTVSSGGSSRSSSSGGGGSGGGGDIQMTQSPSSLSASGGSGQITVTCRASGFYPWNITLSWRQDGVSLSHDTQQWGDVLPDGQGTYQTWVATRISQGEEQRFTCYMEHSGQHSTHPVPSGKGSHHHHHH
In the case of B1, in assay [1], the IC50 is 0.7 nM and the “fold better binding to NKG2D than WT NKG2DL” value (shortened to “fold better binding”) is 27 fold. The binding result in assay [2] was “binds”. In assay [3], this molecule returned a fold affinity increase relative to WT al -a2 of 30 fold and a fold reduction in the off-rate relative to WT of 18 fold. Further, in assay [4], the “killing of FGFR3-expressing P815 cells by NKL cells, calcein-release assay, fold against WT at 0.78 nM” value was roughly 15 fold.

B2: al-a2 variant 25 (ligand)
chain: B1 chain with Q166S
As for B2, the “fold enhancement in equilibrium binding affinity against variant 16” value in assay [5] is 8 fold. In addition, binding in assay [6] was put at a Kd of 0.062 nM. Also, in assay [4], the “EC50 for cell killing, fold improvement against variant 16” value is roughly 5 fold and the “killing of FGFR3-expressing P815 cells by NKL cells, calcein-release assay, fold against variant 16 at 0.2 nM” value is roughly 3 fold.

B3: al-a2 variant 17 (ligand)
chain: B1 chain with G68L
In the case of B3, in assay [1], the 50% inhibitory concentration (IC50) came out at 0.6 nM and the “fold better binding” value was 32 fold. In addition, in assay [3], the fold affinity increase relative to WT al -a2 was 30 fold and the fold reduction in the off-rate relative to WT turned out to be 18 fold. For the same molecule, the “killing of FGFR3-expressing P815 cells by NKL cells, calcein-release assay, fold against WT at 0.78 nM” value in assay [4] was roughly 15 fold.

B4: al-a2 variant 18 (ligand)
chain: B1 chain with S20P, G68L
Turning to B4, in assay [1], the IC50 was determined as 0.5 nM and the “fold better binding” value is 38 fold. In assay [3], this molecule registered a fold affinity increase relative to WT al -a2 of 30 fold and a fold reduction in the off-rate relative to WT of 18 fold. Besides, the “killing of FGFR3-expressing P815 cells by NKL cells, calcein-release assay, fold against WT at 0.78 nM” value in assay [4] was roughly 15 fold.

B5: WED-MICA (ligand)
chain: B1 chain with L125K, R161H
notes: also called WED- al-cc2 domains; WED soluble MICA
With B5, the binding result in assay [2] and in assay [7] was “binds” in each case.

B6: al-a2 variant 15 (ligand)
chain: B1 chain with L125N
B6: in assay [1], the concentration for half-maximal inhibition (IC50) was 1.7 nM and the “fold better binding” value turned out to be 11 fold. For the same molecule, the binding result in assay [2] is listed as “binds”.

B7: al-a2 variant 48 (ligand)
chain: B1 chain with E152A, H158I, Q166A
As to B7, in assay [6], the “fold reduction in NKG2D binding affinity” value was 250 fold.

(Values after patent WO2017222556A2 (dated 2017).)
